The values that follow come from US20220242962A1 (APTEVO RESEARCH AND DEVELOPMENT, published 2022).

Broadly, the Kd is the concentration at which binding is half-saturated. Read a high Kd as weaker binding. For orientation: koff means a measure of how fast the partners let go of each other. The low end stands for slow dissociation, the high end for fast dissociation. Usually kon stands for the second-order rate constant of association. High values mean faster complex formation, low ones slower complex formation. The EC50 (read off the curve) is the midpoint of the concentration-response curve. A low value points to greater potency.

Substitutions are numbered along the chain they refer to.

B1: FXX01110 (bispecific antibody)
chain: EVQLVQSGAEVKKPGASVKVSCKASGYTFTSYWMNWVRQAPGQGLEWMGNIYPSGGSTNYAQKFQGRVTMTVDTSTSTVYMELSSLRSEDTAVYYCASFSDGYYAYAMDYWGQGTLVTVSSGGGGSGGGGSGGGGSGGGGSEIVMTQSPATLSLSPGERATLSCRASQSVSSYLNWYQQKPGQAPRLLIYYASRRHTGIPARFSGSGSGTDFTLTISSLQPEDFAVYYCQQGYNLPYTFGQGTKVEIKEPKSSDKTHTCPPCPAPPAAAPSVFLFPPKPKDTLMISRTPEVTCVVVDVSHEDPEVKFNWYVDGVEVHNAKTKPREEQYNSTYRVVSVLTVLHQDWLNGKEYKCAVSNKALPAPIEKTISKAKGQPREPQVYTLPPSRDELTKNQVSLTCLVKGFYPSDIAVEWESNGQPENNYKTTPPVLDSDGSFFLYSKLTVDKSRWQQGNVFSCSVMHEALHNHYTQKSLSLSPGGGGSPSSYVLTQPPSVSVAPGQTARITCGGNNIGSKSVNWFQQKPGQAPVLVVYDDSGRPSGIPARFSGSTSGNTATLTISRVEAGDEADYYCQVWDSSSDHVVFGGGTKLTVLGGGGSGGGGSGGGGSGGGGSQVQLVESGGGVVQPGRSLRLSCAASGFTLSYYGMHWVRQAPGKGLEWVAAISHDGSDKYYADSVKGRFTISRDNSKNTLYLQMNSLRAEDTAVYYCSNDQFDPWGQGTLVTVSSR
notes: ADAPTIR anti-4-1BB x anti-OX40, pI variant of the anti-OX40 scFv
B2: FXX01114 (bispecific antibody)
chain: B1 chain with T690R
notes: ADAPTIR anti-4-1BB x anti-OX40, pI variant
B3: FXX01113 (bispecific antibody)
chain: B1 chain with T690R
notes: as for B2
B4: FXX01116 (bispecific antibody)
chain: B1 chain with I541V, A543S, T690R
notes: as for B2
B5: FXX01112 (bispecific antibody)
chain: B1 chain with I541V, A543S
notes: as for B2

One assay has as its target T1, Full-length Human OX40 (human, UniProt P43489 29-277).
T1 sequence: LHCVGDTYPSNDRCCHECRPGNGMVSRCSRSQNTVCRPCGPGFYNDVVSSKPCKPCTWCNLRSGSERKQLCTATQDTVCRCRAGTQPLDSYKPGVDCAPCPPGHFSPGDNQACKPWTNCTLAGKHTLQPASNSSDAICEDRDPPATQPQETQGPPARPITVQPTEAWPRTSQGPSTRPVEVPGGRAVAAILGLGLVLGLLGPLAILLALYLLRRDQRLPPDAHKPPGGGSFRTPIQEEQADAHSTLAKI
The assay is described as follows: cell-based or functional assay.
As for B1, the “OX40 Reporter Assay EC50” value was 0.017 nM and the “OX40 Reporter Assay Max induction” value turned out to be 5.9e+06.

As for B2, the “OX40 Reporter Assay EC50” value was 0.018 nM and the “OX40 Reporter Assay Max induction” value came to 6.08e+06.

With B3, the “OX40 Reporter Assay EC50” value was 0.016 nM and the “OX40 Reporter Assay Max induction” value is 6.1e+06.

Take B4: the “OX40 Reporter Assay EC50” value is 0.017 nM and the “OX40 Reporter Assay Max induction” value amounted to 5.95e+06.

Turning to B5, the “OX40 Reporter Assay EC50” value was determined as 0.019 nM and the “OX40 Reporter Assay Max induction” value is 6.17e+06.

For another assay, the target named is Full-length Human 4-1BB (human, UniProt Q07011 24-255). The assay is described as follows: cell-based or functional assay.
Regarding B1, the “4-1BB Reporter Assay EC50” value turned out to be 0.021 nM and the “4-1BB Reporter Assay Max induction” value is 1.38e+06.

Take B2: the “4-1BB Reporter Assay EC50” value amounted to 0.018 nM and the “4-1BB Reporter Assay Max induction” value is 1.43e+06.

Take B3: the “4-1BB Reporter Assay EC50” value came out at 0.019 nM and the “4-1BB Reporter Assay Max induction” value came to 1.37e+06.

For the molecule B4, the “4-1BB Reporter Assay EC50” value worked out at 0.019 nM and the “4-1BB Reporter Assay Max induction” value was 1.39e+06.

B5: the “4-1BB Reporter Assay EC50” value came out at 0.014 nM and the “4-1BB Reporter Assay Max induction” value was 1.45e+06.

The target in a further assay is T2, Human OX40 ECD-AFH (human).
T2 construct: ECD'; entry includes the C-terminal tags; also called OXF003; Human OX40 ECD-avi-flag-his
T2 chain: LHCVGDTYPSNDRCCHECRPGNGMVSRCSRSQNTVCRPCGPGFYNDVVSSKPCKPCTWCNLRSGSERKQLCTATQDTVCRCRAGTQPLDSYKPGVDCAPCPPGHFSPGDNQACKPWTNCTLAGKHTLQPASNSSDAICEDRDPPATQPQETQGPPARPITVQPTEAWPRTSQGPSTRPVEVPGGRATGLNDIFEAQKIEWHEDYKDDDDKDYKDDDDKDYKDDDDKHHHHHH
The assay is described as follows: SPR (Biacore 8K), construct captured, monovalent ECD. As for the experimental part: (§1) Mouse anti-human IgG (GE, BR-1008-39) at 25 μg/ml in 10 mM sodium acetate pH 5.0 was immobilized at a density of ˜10,000 response units (RU) onto each flow cell of a CM5 research-grade sensor chip (GE) by standard amine coupling chemistry. Each binding protein at approximately 100 nM in HBS-EP+ with 0.2% BSA buffer was captured in a flow cell with the immobilized anti-human IgG at a flow rate of 10 μL/min for 20 seconds, leaving one flow cell surface unmodified as the reference. Using a single-cycle kinetics mode, five different concentrations of ECD were sequentially injected through each flow cell at 30 μL/min for 300 seconds followed by a 600 second dissociation period. Regeneration was achieved by injection of 3 M MgCl₂ at a flow rate of 30 μL/min for 30 seconds followed by HBS-EP+ with 0.2% BSA buffer stabilization for 1 min.
(§2) Sensorgrams obtained from kinetic SPR measurements were analyzed by the double subtraction method. The signal from the reference flow cell was subtracted from the analyte binding response obtained from flow cells with immobilized or captured ligands. Buffer reference responses were then averaged from multiple injections. The averaged buffer reference responses were then subtracted from analyte binding responses, and the final double-referenced data were analyzed with Biacore T200 Evaluation software (2.0, GE), globally fitting data to derive kinetic parameters. All sensorgrams were fitted using a simple one-to-one binding model.
(§3) Using the BIACORE 8K SPR system, the affinity of these constructs for human and cyno 4-1BB, and human and cyno OX40 ECD, were determined using the methods described above. Monovalent binding affinity was determined by capturing the ADAPTIR™ bispecific construct on the chip and injecting monovalent ECD of the target at multiple concentrations.
Consider B1, for which the equilibrium dissociation constant (Kd) was < 1 nM, the off-rate (koff) worked out at 0.00036 s⁻¹ and the association rate constant (kon) is 910000 M⁻¹ s⁻¹.

For the molecule B2, the Kd is < 1 nM, the off-rate (koff) was 0.00026 s⁻¹ and the association rate constant (kon) came out at 1.1e+06 M⁻¹ s⁻¹.

On to B3, for which the Kd is < 1 nM, the koff came to 0.00031 s⁻¹ and the on-rate (kon) was determined as 890000 M⁻¹ s⁻¹.

On to B4, for which the dissociation constant Kd was < 1 nM, the dissociation rate constant (koff) turned out to be 0.00044 s⁻¹ and the association rate constant (kon) amounted to 880000 M⁻¹ s⁻¹.

For the molecule B5, the Kd was < 1 nM, the koff was 0.00057 s⁻¹ and the on-rate constant (kon) worked out at 790000 M⁻¹ s⁻¹.

For the next assay, the target named is T3, Cyno OX40-AFH (cynomolgus monkey).
T3 construct: entry includes the tags; also called OXF005; cyno OX40 ECD
T3 chain: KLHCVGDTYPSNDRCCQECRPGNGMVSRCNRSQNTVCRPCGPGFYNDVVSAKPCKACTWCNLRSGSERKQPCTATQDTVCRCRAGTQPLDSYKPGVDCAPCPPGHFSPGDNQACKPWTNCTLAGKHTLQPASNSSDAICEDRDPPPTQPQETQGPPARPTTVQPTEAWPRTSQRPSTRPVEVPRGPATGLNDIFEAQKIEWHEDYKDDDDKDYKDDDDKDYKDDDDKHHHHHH
The description is as above. As for the experimental part:
as §1, §2, §3
For B1, the Kd was < 1 nM, the koff was found to be 0.00029 s⁻¹ and the on-rate constant (kon) turned out to be 1.1e+06 M⁻¹ s⁻¹.

Take B2: the dissociation constant Kd was < 1 nM, the koff came to 0.00028 s⁻¹ and the association rate constant (kon) stood at 1.1e+06 M⁻¹ s⁻¹.

Consider B3, for which the Kd is < 1 nM, the off-rate constant (koff) worked out at 0.00028 s⁻¹ and the kon stood at 980000 M⁻¹ s⁻¹.

As to B4, the dissociation constant (Kd) is < 1 nM, the koff amounted to 0.00027 s⁻¹ and the kon was found to be 1e+06 M⁻¹ s⁻¹.

Regarding B5, the equilibrium dissociation constant (Kd) was < 1 nM, the koff is 0.00031 s⁻¹ and the kon came out at 870000 M⁻¹ s⁻¹.

The next assay addresses T4, Human 4-1BB ECD-AFH (human).
T4 construct: entry includes the tags; also called FOB003; HUMAN CD137 ECD-AVI-FLAG-HIS
Described as above. Here is the method: as §1, §2, §3
The molecule B1 returned a dissociation constant (Kd) of 18 nM, a koff of 0.0048 s⁻¹ and a kon of 260000 M⁻¹ s⁻¹.

Regarding B2, the affinity, expressed as Kd, was 17 nM; the koff is 0.0045 s⁻¹; the kon came to 270000 M⁻¹ s⁻¹.

In turn, B3 came in with a Kd of 15 nM, a koff of 0.0046 s⁻¹ and a kon of 300000 M⁻¹ s⁻¹.

The molecule B4 showed a Kd of 17 nM, a koff of 0.0046 s⁻¹ and an on-rate (kon) of 270000 M⁻¹ s⁻¹.

B5 showed a dissociation constant (Kd) of 17 nM, a dissociation rate constant (koff) of 0.0045 s⁻¹ and a kon of 260000 M⁻¹ s⁻¹.

In a further assay the target is T5, Cyno 4-1BB ECD-AFH (cynomolgus monkey).
T5 construct: entry includes the tags; also called FOB004; Cyno CD137 ECD-avi-flag-his
T5 chain: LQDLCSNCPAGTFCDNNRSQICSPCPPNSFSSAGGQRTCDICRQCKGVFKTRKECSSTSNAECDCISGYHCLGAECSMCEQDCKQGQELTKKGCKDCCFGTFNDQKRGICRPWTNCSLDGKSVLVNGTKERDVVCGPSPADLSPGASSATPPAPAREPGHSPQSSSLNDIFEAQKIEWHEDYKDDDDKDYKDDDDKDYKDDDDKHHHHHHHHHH
Described as above. Here is the method:
as §1, §2, §3
In turn, B1 returned a dissociation constant (Kd) of 70 nM, a koff of 0.0077 s⁻¹ and a kon of 110000 M⁻¹ s⁻¹.

The molecule B2 registered a Kd of 116 nM, a koff of 0.0091 s⁻¹ and a kon of 79000 M⁻¹ s⁻¹.

B3 showed a Kd of 82 nM, a koff of 0.0078 s⁻¹ and an association rate constant (kon) of 95000 M⁻¹ s⁻¹.

Regarding B4, binding was characterised by a dissociation constant (Kd) of 81 nM, the dissociation rate constant (koff) was found to be 0.0079 s⁻¹ and the kon came out at 98000 M⁻¹ s⁻¹.

For the molecule B5, the equilibrium dissociation constant (Kd) is 77 nM, the off-rate constant (koff) came out at 0.008 s⁻¹ and the association rate constant (kon) was 100000 M⁻¹ s⁻¹.

The target of a further assay is T6, Full-length Cyno 4-1BB (cynomolgus monkey, UniProt Q07011 24-255 (human entry)).
T6 construct: on Jurkat or CHO cells; also called FOB006; cynomolgus 4-1BB
T6 chain: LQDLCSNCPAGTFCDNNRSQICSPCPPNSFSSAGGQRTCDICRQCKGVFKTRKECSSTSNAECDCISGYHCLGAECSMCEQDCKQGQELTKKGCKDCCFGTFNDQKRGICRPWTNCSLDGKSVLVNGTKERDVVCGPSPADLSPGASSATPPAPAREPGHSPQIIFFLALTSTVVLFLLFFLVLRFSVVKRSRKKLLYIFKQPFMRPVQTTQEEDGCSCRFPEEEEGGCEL
Put plainly: flow cytometry on Jurkat cells transfected with cynomolgus 4-1BB, goat anti-human Fc secondary antibody, MFI (Mean). As for the experimental part:
(§4) Serial dilutions of ADAPTIR™ constructs were incubated with transfected target cells and subsequently labelled with a fluorescently-conjugated goat-a-human Fc secondary antibody. […] (See Example 25.)
Regarding B1, the 50% effective concentration (EC50 (read off the curve)) was ~0.3 nM.

B2: the “EC50 (read off the curve)” value is ~0.3 nM.

Regarding B3, the “EC50 (read off the curve)” value was ~0.3 nM.

Turning to B4, the “EC50 (read off the curve)” value is ~0.3 nM.

On to B5, for which the 50% effective concentration (EC50 (read off the curve)) was ~0.3 nM.

The target in another assay is T7, Full-length Cyno OX40 (cynomolgus monkey, UniProt P43489 29-277 (human entry)).
T7 construct: on CHO-K1SV cells; also called OXF004; cynomolgus OX40
T7 chain: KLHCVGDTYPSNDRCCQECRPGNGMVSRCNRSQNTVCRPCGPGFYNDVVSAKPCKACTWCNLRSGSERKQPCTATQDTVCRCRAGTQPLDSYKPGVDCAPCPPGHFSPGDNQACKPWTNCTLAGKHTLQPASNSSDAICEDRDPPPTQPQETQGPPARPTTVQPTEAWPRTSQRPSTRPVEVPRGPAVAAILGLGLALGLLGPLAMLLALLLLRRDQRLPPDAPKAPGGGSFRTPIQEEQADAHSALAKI
Put plainly: flow cytometry on CHOK1SV cells transfected with cynomolgus OX40, goat anti-human Fc secondary antibody, MFI (Mean). As for the experimental part:
as §4
(In general: Flow cytometry measures light scatter and fluorescence of single cells or particles in a stream.)
Consider B1, for which the “EC50 (read off the curve)” value was in the range of 1 to 2 nM.

With B2, the “EC50 (read off the curve)” value lay within 1 to 2 nM.

Regarding B3, the 50% effective concentration (EC50 (read off the curve)) fell in the range of 1 to 2 nM.

B4: the “EC50 (read off the curve)” value was in the range of 1 to 2 nM.

As for B5, the “EC50 (read off the curve)” value is 1 to 2 nM.
